{"source": "paper PMC6048123", "molecules": {"B1": {"name": "donor β-strand of FimF (DS_(FimF)) linked by DNKQ to the C-terminus of FimG in (I91)2-FimG-(I91)2 (peptide)", "chain": "DNKQADSTITIRGYVRDNGCSVAAESTNFTVDLMENAAKQFNNIGATTPVVPFRILLSPCGNAVSAVKVGFTGVADSHNANLLALENTVSAASGLGIQLLNEQQNQIPLNAPSSALSWTTLTPGKPNTLNFYARLMATQVPVTAGHINATATFTLEYQ"}, "B2": {"name": "donor β-strand of FimF complementing FimG in the array polyprotein (I91)2-FimF-FimG-FimH-(I91)2 (peptide)", "chain": "B1 chain"}, "B3": {"name": "DsbA oxidoreductase (enzyme)", "chain": "AQYEDGKQYTTLEKPVAGAPQVLEFFSFFCPHCYQFEEVLHISDNVKKKLPEGVKMTKYHVNFMGGDLGKDLTQAWAVAMALGVEDKVTVPLFEGVQKTQTIRSASDIRDVFINAGIKGEEYDAAWNSFVVKSLVAQQEKAAADVQLRGVPAMFVNGKYQLNPQGMDTSNMDVFVQQYADTVKYLSEKK"}}, "key": {"[1]": {"target": "FimA domain of the self-complemented construct FimA-DS_(FimA), oxidized (FimAS-S), in the polyprotein (I91)2-FimA-(I91)2 (E. coli) (UniProt P04128)", "sequence (P04128 24-182)": "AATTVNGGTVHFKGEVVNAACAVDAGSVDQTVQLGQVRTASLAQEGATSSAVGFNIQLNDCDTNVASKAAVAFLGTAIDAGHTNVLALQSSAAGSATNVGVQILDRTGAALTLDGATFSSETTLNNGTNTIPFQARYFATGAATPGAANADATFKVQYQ", "assay": "single-molecule force spectroscopy (AFM, force-extension)"}, "[2]": {"target": "FimH (lectin and pilin subdomains), β-strand-complemented and oxidized, in the array polyprotein (I9 (E. coli) (UniProt P08191))", "assay": "single-molecule force spectroscopy (AFM, force-ramp)"}, "[3]": {"target": "FimF domain of the self-complemented construct FimF-DS_(FimA), oxidized (FimFS-S), in the polyprotein (I91)2-FimF-(I91)2 (E. coli) (UniProt P08189)", "assay": "single-molecule force spectroscopy (AFM, force-extension)"}, "[4]": {"target": "FimF domain, β-strand-complemented and oxidized, in the array polyprotein (I91)2-FimF-FimG-FimH-(I91)2 (E. coli) (UniProt P08189)", "assay": "single-molecule force spectroscopy (AFM, force-ramp)"}, "[5]": {"target": "FimH (lectin subdomain FimHL and pilin subdomain FimHP) of the self-complemented construct FimH-DS_( (E. coli) (UniProt P08191))", "assay": "single-molecule force spectroscopy (AFM, force-extension)"}, "[6]": {"target": "FimG domain of the self-complemented construct FimG-DS_(FimF), oxidized (FimGS-S), in the polyprotein (I91)2-FimG-(I91)2 (E. coli)", "sequence (P08190 24-167)": "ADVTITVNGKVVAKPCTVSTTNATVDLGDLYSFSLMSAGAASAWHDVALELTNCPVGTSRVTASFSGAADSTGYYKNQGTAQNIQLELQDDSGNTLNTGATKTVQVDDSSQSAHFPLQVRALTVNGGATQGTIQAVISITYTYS", "assay": "single-molecule force spectroscopy (AFM, force-extension)"}, "[7]": {"target": "FimG domain, β-strand-complemented and oxidized, in the array polyprotein (I91)2-FimF-FimG-FimH-(I91)2 (E. coli)", "sequence (P08190 24-167)": "as above", "assay": "single-molecule force spectroscopy (AFM, force-ramp)"}, "[8]": {"target": "FimG domain of the self-complemented construct FimG-DS_(FimF), reduced (FimG_(SH-SH)), in the polyprotein (I91)2-FimG-(I91)2 (E. coli)"}}, "data": [{"molecule": "donor β-strand of FimA (DS_(FimA)) linked by DNKQ to the C-terminus of FimA in (I91)2-FimA-(I91)2 (from UniProt P04128) (peptide)", "values": [{"measurement": "unfolding force (rupture of the β-strand interaction)", "setting": "[1]", "result": 527, "unit": "pN"}]}, {"molecule": "donor β-strand of FimG complementing FimH in the array polyprotein (I91)2-FimF-FimG-FimH-(I91)2 (from UniProt P08190) (peptide)", "values": [{"measurement": "unfolding force of FimHP in force-ramp (rupture of the β-strand interaction)", "setting": "[2]", "result": 238, "unit": "pN"}]}, {"molecule": "donor β-strand of FimA (DS_(FimA)) linked by DNKQ to the C-terminus of FimF in (I91)2-FimF-(I91)2 (peptide)", "values": [{"measurement": "unfolding force (rupture of the β-strand interaction)", "setting": "[3]", "result": 418, "unit": "pN"}]}, {"molecule": "donor β-strand of FimA complementing FimF in the array polyprotein (I91)2-FimF-FimG-FimH-(I91)2 (peptide)", "values": [{"measurement": "unfolding force in force-ramp (rupture of the β-strand interaction)", "setting": "[4]", "result": 281, "unit": "pN"}]}, {"molecule": "donor β-strand of FimG (DS_(FimG)) linked by DNKQ to the C-terminus of FimH in (I91)2-FimH-(I91)2 (from UniProt P08190) (peptide)", "values": [{"measurement": "rupture force of FimHP (rupture of the β-strand interaction)", "setting": "[5]", "result": 362, "unit": "pN"}]}, {"molecule": "B1", "values": [{"measurement": "unfolding force (rupture of the β-strand interaction)", "setting": "[6]", "result": 431, "unit": "pN"}]}, {"molecule": "B2", "values": [{"measurement": "unfolding force in force-ramp (rupture of the β-strand interaction)", "setting": "[7]", "result": 261, "unit": "pN"}]}, {"molecule": "B3", "values": [{"measurement": "refolding probability of FimG in force-clamp AFM after 45 s at 0 pN, with DsbA (100 μM) against reduced FimG alone (around 20%)", "setting": "[8]", "result": 70, "unit": "%"}]}]}
